Test: label from the status in PepcDB records
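Also: failed if final PepcDB status was selected cloned or expressed and not failed if soluble or beyond.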

Sequence | protein production
MKSFDGHNDLLARLWLSEHPDPVGMFLKGQLPGHLDFARCQQAQFAGGLFAIFVPPFDYVKNNHPYKLRKSAQAGFDTQDIHHIVFTQLDYIKQIASRSDRRIQICLSVEDIQFCLQQDIMAVVIHLEGAEVLDSEFGVLEQLHARGLRSIGPLWNLPNQFGHGLQASFPHSPDTGLGLTDQGKALIQLCSEKRIMIDVSHMNEKAFWDTAKISELPLIATHSNVHQLCPQPRNLTDAQLEAIQASQGCVGVNFDTAFLRPDGQRNAATSLDLILEHIEYLMHKLGEDQVAFGSDFDGGFISDHLKDVTGLIHLQQAFERRGYSQALQEKLCHQNWLSALQRVWHPAC | failed
MKSHAEVVKTRHHEYSLVFPVIALVVLYIWGNSQDFIAILGINAVALAGILFSAFSVVRHADVLAHRLGEPYGSLILSLSVVILEVSLISALMATGDAGPDLMRDTLYSIIVIVTGGLVGFALLLGGRKFATQYVNLSGIKQYLMAIFPLAVIVLVFPSALPDGNFSVTQSLIVAAISAAMYGVFLLIQTRTHQSLFVYEHEDEGDGDDPHHGKPSAHSSLWHTGWLLVHLIAVIAVTKTNSMPLETLLTEMNAPTQFTGFLVALLILSPEGLGAIRAVLKNQVQRAMNLFFGSVLATISLTVPTVTIIAMITGRTLNFGLDMPHIVVMLSVLVLCHITFSTGRTNVLSGSAHLALFAAYLITITL | failed
MKSHQLLKAPFQHGFLFSRPLVMYCFKTCHDSAWKHYIRFLKYRHEKLYEEALSEIDNAIKVCNSIAFRYFLLSEKLTVLGYMGKHEEGIKLYSHLRGRMRNVSPNLRSIFIGNLLNYCSMYLHNAFECLGRIKPEAHHLEKSSYAFILIGKARYMARTGNVKEAIESYEKALKILQEIPHPSGIIACLNDMAWYTKEKDPEKAKDMAEEALYWNGYFFDAPRFYALDTLFEVQRTTSDPAIVETARLIEIASEGLKDSASDLLKKDQRLFLRLNNSLYRNTKSLQRFLRRNTTSIKHLSEITGVARNRLSDILNGKTQKIRGETLRKIAKAFEKSNILSFPPPLLSEWVKLRIEENFSAALREIKTKRLEERQILFLSTYTALIDRKFLSRKERLKKAYTLLEDIESFADFMAKDHRTMEFVVSMVKAHPFVEGRKEAVKRALARMKRKRLERFVLRYIEMKESDRKLLDRFLRNYGRYDGVRFGIRLKGPEVVREFAKKYSLKVQPLFAAFWCEEDGRVRRRLERVLKHMVLN | failed
MKSKWIFIQWFKYNNIRMKDESTNKFGSLNLAVLVLSVYVLGALIVDTTIKLPEETSRLLNYIDLAICIFFFVEFCIRLYHADSKMKFMRWGWIDLVSSIPMINFLRFGRVFRLIRLFRILRAFRTTKEFVTYVFRIKAQGAFTSATILAILLIIFSSIAILQVENASTSNITTAEDAIWWSYVTITTVGYGDKYPVTTEGRIIAMFLMTAGVGLFGTFTAYIASLFVSDNKKEETETKE | failed
MKSLYRSRMANHSKHGRPFTLSLPNRSQCVKIVATFAAVGLLATGGIISRSFYTSSTQAEPTTRVTAYSATDAEASRGNAREALGGDTAYVTVKINGKSRVVPGTNFTNVKSVLEAGNITLEPEDTVSPSLTTKVDEKTVITVSRAGASVEVSDSSIAFNVVKKETSSLPKGQEKVETEGEEGVMESTNLVTRSGDTVISSNMISSYVKKAPVDKVVLVGTGSTSTSSSSSSSSSTASVGTTVPAGEMQQWAHDYLISNGYTEADFTATVYIISHESGWSVSATNPSSGAYGLPQALPGSKMVSAGADWATNYQTQLKWFWGYCASRYGSIQGAYSYWLAHKCY | failed
MKSQNPSKRNLPGVIIAYFLIYVVWGSTYFFIGVALKDFSPFLLGALRFTTAGLILLGICYLRGEQIFKKSLVKRSAVSGIVLLFVDMAVVMLAQRYLTSSLVAIIASSTALWILLLDVPMWRTNFRNPLTIAGGGIGFGGVVMLYAEQLNAEWLHPQSERGILLLVFGCISWALGTLYAKYRSSREEEVNAFAGSAWQMLFASVMFWICAVVNGDVREADLSTVSVTSWFSLLYLISFGSLLAYSAYVWLLKVRPAAEVGTHAYVNPFIAVLLGVSFGNEQVTFVQLSGLLVILLGVMLISRKRNKMKSTAISR | failed
MKSQWECFLQNLGVWEGSFSNFSPEGTLLNDTSSRLCLEGLNNNQTVRLTLSRSGKDDVIREFRSVGGGLLFFENGSFSEGLIQLGPFSEFGGELAFVHENRRLRLVQLFDRNGHLNGLTLIREHLAGTPVAERPLLQINDLLGEWRGQAVTIYRDLRPPDIYSTTLKIQLDDAGRLMQSTSFGERTITSTATIKGSIVLFDQDPEKQVQVLLLPDGASATSPLKVQLRQPLFLEAGWLIQSDLRQRMIRSYNDKGEWVSLTLVTEERV | not failed
MKSRTSELAAGIFVIIFGVALFFLAMKVSGLAGTNLSDPYTMTAQFDNVNGLKPRAKVTMSGVTIGRVDAITLDPVTRLATVTFDLDGKLTTFNAKQLKTVEQNALEELHYSSDYKSAEPAKQKVMEQQLIDNMKSITSIDEDAYIMVSTNGLLGEKYLKIVPGGGLNYLKRGDAITNTQGTMDLEDLISKFITGGAGKSSDNSTGTAAQSSSSEDKEPSFTELEHHHHHH | failed
MKSSTMTSDYYKQTQIDQTLRLREVLKTLPPFAKDYFRAMEPKSSAKTRINYAYDIRVFFHFLLENNPIYKNYTMDQFRVQDLERIEPVDIEEYMEYLKVYKREDNEMITNGERGLKRKMSALRSFYSYYFKHQYIATNPTLLEHHHHHH | failed
MKSSVVSAWDMLWRSHREAKRLLLFAMPVRAGKDAGLKINSEQTMKEEKPPSYKTPQKIGLLLGPALFFAVLLFFFPEGLSYEGRMVLATTLWVAVWWITEAVPIPAASLLPIVLLPLTGALEGAAVTSSYGDPIVFLFLGGFLIALAMERWNLHKRIALNIISVVGTSTSRIVLGFMAATGFLSMWVSNTAAVMMMLPIGTAIIHQVSAVIKSERKDLAAEEAKFSKALIFSIGYAGTIGGLGTLIGTPPNIILAANIKKLYGVEVSFGGWMAFAVPVVVILLVAVWLYLTKVAHPIKMKELPGGKELILEEKRKLGKMSFEETMVLLVFGFAAFMWVTRTFLWDDKIPGIDDTMIAIFAASLLFLIPSLNKGGRVLDWSVSKDLPWGILLLFGGGLALATGFKETGLAEWIGGRLTVLDGFNFVVIVIISTALVLFLTEITSNTATATMILPVLASLALALNVHPYALMVPAAMAANCAFMLPVGTPPNAIIFASGKLKISEMVRTGFVINIFTLILIVGAVFYILPHLWGVDLTVFPDNLKSN | failed
MKSVFHLWRSHMRHLNDMALFVEVARARSFRKAAEALGMPNSTLSRRVSELEKAIGLRLLHRTTRKIELTEAGQLYYERSKRIVDEARLAHEQLGAMLNQPSGVLRVSLPVNLATFYLTPIIGEFARHYPGITFEFDLTPRRVDLVAEPFDVAIRIGKLEDSGLITRLIGRHSRHLYASPGYIEASGEPATPAELAEHECIGMLRSPIWSLHQGINKVDVAVRGRFTLNSVGMIRALAVNHQGIALLPEKIVAEDVAFGRLRRILPEWQGSAVSIFAVTETRLIPAKTQRFIEFLSSRLMEA | failed
MKSVIFTEEKNLQRQNPLQKSEQQRRNFEMPSPPTTTSLSVTQTINGSHSFTIKGYSLAKGIGIGKHIASDTFTVGGYQWAIYFYPDGKNPEDNSAYVSVFIALASDGTDVRALFELSLLDQSGKGKHKVHSHFDRALESGPYTLKYRGSMWGYKRFFRRLMLETSDFLKDDCLKINCTVGVVVSEIDCPRLHSIHVPASDIGSHFGMLLENEDGSDITFNVSGEKFRAHRLVLAARSPVFESEFLDVTGEEDRDIEVTDMEPKVFKALLHYIYKDALIEDAESSSSSGSSVGPSASDTLAAKLLGAADKYKLPRLSLMCESVLCKDISVDSVANILALADRYNASALKSVCLKFAAENLIAVMRSDGFDYLREHCPSLQSELLKTVAGCEEELSGGGGKTRSVWGQFSDGGAETNGRQAQTWGDINGGAERSQSVWVEVVNANGSGRNNNDNNNSDDPMAELED | failed
MKSWPRPCSWACANPETKGRAYRTMSSSPTISPASDTFAAMTDDHRLAEFIREQASATRVVIQARKRLSGGAIQENWLLDLLIEGGPWAGVRRWVLRSDALSALPASLDREQEFAVLQVVYQAGVKVPRPLWLCRDVRVHGRVFFLMEYVPGSAAGRALSTGAGPQGRAQLATQLGANLARLHQVRPPCATLCFLSVPDSSPALATIDAYRRYLDTLADAYPVLEWGLRWCELHAPRSSTLCLLHRDYRTGNYLASEEGLEAVLDWEFTGWGDPCEDLGWFTARCWRFTRPDLEAGGIGQLEDFLRGYHEVSSLCIERSRLHYWQVMATLRWAVIALQQGQRHLSGEEPSLELALTARLLPELELDILHMTGAEAP | failed
MKSWQIELLYDGECPLCLREVNFLRSKDQGRGLVNFVDIAQPDYNPLDHGGVSFEDAMARIHGVKADGSVVKNVAVFREVYEILGIGWLYAPTRWPIIGPLVDRIYDFWADLRLSWTGRSSLAEILAQREKGMCATDGCALPVTSGVEGKP | failed
MKSYTKHTHTNRLASESSPYLLQHAHNPVEWFPWGEEALQKAKAEDKPILVSIGYSACHWCHVMEHECFEKEEVAAVMNDLFINIKIDREERPDLDQIYMDAVSAMGLRGGWPLNVFLTPDAKPFYGGTYFPQDHWLNLLGQISNAYLNHREDILKSAESFTESLNQSDVF | not failed
MKTDWSHYLSVEMESTISNELSILCGAEVAFLGYSCSGKPYTFGSPSFQAVAERFLNREASSSLQRSVMNAHQQAKIQELCKVYNRMVEEAKTEEAKVKKAAALAETMPVDEDAWWKVDPKEVEDHEEAKKIMEKCEGLYEKLCNEAAARIQRGDAENNNK | failed
MKTFEVMIQTDSKGYLDAKFGGNAPKAFLNSNGLPTYSPKISWQKVEGAQSYALELIDHDAQKVCGMPFVHWVVGNIAHNVLEENASMMDKRIVQGVNSLTQGFIRSPLNESEKQRSNLNNSVYIGPMPPNGDHHYLIQVYALDIPKLALKAPFFLGDLHDKMRNHIIAIGRKEFLYKQFVRK | not failed
MKTGDKQFAVIGLGRFGLAVCKELQDSGSQVLAVDINEDRVKEAAGFVSQAIVANCTHEETVAELKLDDYDMVMIAIGADVNASILATLIAKEAGVKSVWVKANDRFQARVLQKIGADHIIMPERDMGIRVARKMLDKRVLEFHPLGSGLAMTEFVVGSRLMGKTLSDLALCKVEGVQVLGFKRGPEIIKAPDMSTTLEIGDLIIVVGPQDKLANKLKSLLEHHHHHH | failed
MKTGKELKPGTVIRLENDPWLVQKAEFTKSGRNSAIMKTKLKNLLTGYKTEIVYSADDKLDDVILDRKEATLSFISGDTYTFMDTTDYTMYELNAEDIESVLPFVEEGMTDVCEAVFFDERLVSVELPTTIVRQVDYTEGSARGDTSGKVMKPAKLKNGTELSVADFIEIGDMIEIDTREGGSYKGRAKLEHHHHHH | failed
MKTHFVKLLTQPESAWVQIRSEEQRKPWQYLPHLLLWALVPALCLLIGVTQVGWSLVDAERVRLSLASAMQLALLLYLTALLGTVLMGGFIRWMSRPFEARPTLNQCVGFAAYTATPYFIAGISGLYPSRWLAVAALLVASAYASYLLLVGLPKFMYLNQERGRLYAASVWGVGLLVLVTILVSMILFWFNVLAPQYLRPLAAL | failed
MKTINVFHYDAFTNKPNMGNPAGIVLDADGLTEEEMQRIAEKVGFNETSFVLSSEVADIRMRYFTPGYEMDLCGHGTVGTIYALRERGLLEEKASLTIETKAGILPIQIGVNENGETFIKMRQTAPQFKDFAGSKEELAHSIGLEVNDLDVSLPIVYGSTGNWTVIVPVKNLDVCERMKPNNEVFPSVLKEIPNASIHPICLETYDEKVHMHGRHFSSAYAGTIEDPVTGTASGVMGAYYATYVEKDFDHEMELIVEQGQEIHKDGRVTVYVTKDVESEKLQIDIAGTAVYVKEFEVLI | failed
MKTKNKILPEQEEEKTFQYRTYGKGELALLYLPNILQQSAVDRFNEWIEAAPGLKERLLATGMNPRARYYTPAQVRLIIEVLQEP | failed
MKTLFWRTLVVIFIILGVIGAILPGMPTTVFLILAAWAASKGWPEMDEWLLNHPKYGPTLRDWRAHGTVPRKAKWIASIMMLISAIMMLFTNAPFWVKVFTDTTMLIVAIWLWLRPEPVKLPLESPTLHQNTEDEHV | failed
